Here are results for one molecule from paper PMC10505172 (2023).

Values joined by “and” are separate entries in the source; they are usually repeats but may differ in a detail not shown here. Equal entries are not always repeated. Where two headings read alike, the source gives them in different places.

For orientation: Kd means the equilibrium constant for the complex coming apart.

The target of assay [1] is T1, HIS:SUMO:HD2 fusion protein (tick; entry name EVA4_RHISA, the …). Briefly: BLI. A general note: Biolayer interferometry detects binding as a change in optical thickness at a sensor tip.
For assay [2], the target named is T1, HIS:SUMO:HD2 fusion protein. Briefly: BLI. The source holds these as a separate data set.

B1: CCL8 (ligand)
chain: QPDSVSIPITCCFNVINRKIPIQRLESYTRITNIQCPKEAVIFKTKRGKEVCADPKERWVRDSMKHLDQIFQNLKP
For the molecule B1, the Kd in assay [1] was 142 nM; in assay [2] it was 142 nM and 84.9 nM.
